Target: the molecule itself
Test: high-speed atomic force microscopy

B1: PDI I289A (enzyme)
chain: not shown
stoichiometry N: 2

From PMC8024706 (iScience, 2021)
